PMC12416549 (2024)

T1: TNFR1 (Homo sapiens, UniProt P19438)
T1 chain: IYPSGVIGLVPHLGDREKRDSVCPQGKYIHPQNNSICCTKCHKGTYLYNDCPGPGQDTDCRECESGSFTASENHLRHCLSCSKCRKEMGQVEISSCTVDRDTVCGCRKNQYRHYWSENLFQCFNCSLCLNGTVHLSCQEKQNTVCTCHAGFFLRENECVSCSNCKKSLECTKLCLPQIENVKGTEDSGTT


Target: T1, TNFR1
Test: yeast display SC50

Binder | apparent Kd (screen)
L52H (designed binder) MTLQELLREEALRRAEAEAFRYALELLAEKFPEQKEYLLDLAEEIESQIRSHSGVDVEDVRKFLDKEWAWVKELLAEHPAELAEVEAARAARLAELRAEVEAKVAA | 6.43 nM
Y22V (designed binder) MTLQELLREEALRRAEAEAFRVALELLAEKFPEQKEYLLDLAEEIESQIRSLSGVDVEDVRKFLDKEWAWVKELLAEHPAELAEVEAARAARLAELRAEVEAKVAA | 0.79 nM
D56G (designed binder) MTLQELLREEALRRAEAEAFRYALELLAEKFPEQKEYLLDLAEEIESQIRSLSGVGVEDVRKFLDKEWAWVKELLAEHPAELAEVEAARAARLAELRAEVEAKVAA | 0.956 nM
R92N (designed binder) MTLQELLREEALRRAEAEAFRYALELLAEKFPEQKEYLLDLAEEIESQIRSLSGVDVEDVRKFLDKEWAWVKELLAEHPAELAEVEAARAANLAELRAEVEAKVAA | 0.718 nM
V60Q (designed binder) MTLQELLREEALRRAEAEAFRYALELLAEKFPEQKEYLLDLAEEIESQIRSLSGVDVEDQRKFLDKEWAWVKELLAEHPAELAEVEAARAARLAELRAEVEAKVAA | 0.718 nM
E36F (designed binder) MTLQELLREEALRRAEAEAFRYALELLAEKFPEQKFYLLDLAEEIESQIRSLSGVDVEDVRKFLDKEWAWVKELLAEHPAELAEVEAARAARLAELRAEVEAKVAA | 0.539 nM
R89F (designed binder) MTLQELLREEALRRAEAEAFRYALELLAEKFPEQKEYLLDLAEEIESQIRSLSGVDVEDVRKFLDKEWAWVKELLAEHPAELAEVEAAFAARLAELRAEVEAKVAA | 1.05 nM
K30D (designed binder) MTLQELLREEALRRAEAEAFRYALELLAEDFPEQKEYLLDLAEEIESQIRSLSGVDVEDVRKFLDKEWAWVKELLAEHPAELAEVEAARAARLAELRAEVEAKVAA | 1.27 nM
L41D (designed binder) MTLQELLREEALRRAEAEAFRYALELLAEKFPEQKEYLLDDAEEIESQIRSLSGVDVEDVRKFLDKEWAWVKELLAEHPAELAEVEAARAARLAELRAEVEAKVAA | 1.27 nM
E5N (designed binder) MTLQNLLREEALRRAEAEAFRYALELLAEKFPEQKEYLLDLAEEIESQIRSLSGVDVEDVRKFLDKEWAWVKELLAEHPAELAEVEAARAARLAELRAEVEAKVAA | 0.446 nM
P32E (designed binder) MTLQELLREEALRRAEAEAFRYALELLAEKFEEQKEYLLDLAEEIESQIRSLSGVDVEDVRKFLDKEWAWVKELLAEHPAELAEVEAARAARLAELRAEVEAKVAA | 0.49 nM
E73Q (designed binder) MTLQELLREEALRRAEAEAFRYALELLAEKFPEQKEYLLDLAEEIESQIRSLSGVDVEDVRKFLDKEWAWVKQLLAEHPAELAEVEAARAARLAELRAEVEAKVAA | 0.446 nM
I45L (designed binder) MTLQELLREEALRRAEAEAFRYALELLAEKFPEQKEYLLDLAEELESQIRSLSGVDVEDVRKFLDKEWAWVKELLAEHPAELAEVEAARAARLAELRAEVEAKVAA | 0.539 nM
E101R (designed binder) MTLQELLREEALRRAEAEAFRYALELLAEKFPEQKEYLLDLAEEIESQIRSLSGVDVEDVRKFLDKEWAWVKELLAEHPAELAEVEAARAARLAELRAEVRAKVAA | 0.49 nM
K35F (designed binder) MTLQELLREEALRRAEAEAFRYALELLAEKFPEQFEYLLDLAEEIESQIRSLSGVDVEDVRKFLDKEWAWVKELLAEHPAELAEVEAARAARLAELRAEVEAKVAA | 0.539 nM
A23W (designed binder) MTLQELLREEALRRAEAEAFRYWLELLAEKFPEQKEYLLDLAEEIESQIRSLSGVDVEDVRKFLDKEWAWVKELLAEHPAELAEVEAARAARLAELRAEVEAKVAA | 0.869 nM
Y22D (designed binder) MTLQELLREEALRRAEAEAFRDALELLAEKFPEQKEYLLDLAEEIESQIRSLSGVDVEDVRKFLDKEWAWVKELLAEHPAELAEVEAARAARLAELRAEVEAKVAA | 0.446 nM
K62N (designed binder) MTLQELLREEALRRAEAEAFRYALELLAEKFPEQKEYLLDLAEEIESQIRSLSGVDVEDVRNFLDKEWAWVKELLAEHPAELAEVEAARAARLAELRAEVEAKVAA | 0.49 nM

Binder | apparent Kd (screen)
E10H (designed binder) MTLQELLREHALRRAEAEAFRYALELLAEKFPEQKEYLLDLAEEIESQIRSLSGVDVEDVRKFLDKEWAWVKELLAEHPAELAEVEAARAARLAELRAEVEAKVAA | 3.3 nM
Q34I (designed binder) MTLQELLREEALRRAEAEAFRYALELLAEKFPEIKEYLLDLAEEIESQIRSLSGVDVEDVRKFLDKEWAWVKELLAEHPAELAEVEAARAARLAELRAEVEAKVAA | 0.593 nM
A17I (designed binder) MTLQELLREEALRRAEIEAFRYALELLAEKFPEQKEYLLDLAEEIESQIRSLSGVDVEDVRKFLDKEWAWVKELLAEHPAELAEVEAARAARLAELRAEVEAKVAA | 0.229 nM
L38R (designed binder) MTLQELLREEALRRAEAEAFRYALELLAEKFPEQKEYRLDLAEEIESQIRSLSGVDVEDVRKFLDKEWAWVKELLAEHPAELAEVEAARAARLAELRAEVEAKVAA | 4.39 nM
L75A (designed binder) MTLQELLREEALRRAEAEAFRYALELLAEKFPEQKEYLLDLAEEIESQIRSLSGVDVEDVRKFLDKEWAWVKELAAEHPAELAEVEAARAARLAELRAEVEAKVAA | 0.653 nM
D40M (designed binder) MTLQELLREEALRRAEAEAFRYALELLAEKFPEQKEYLLMLAEEIESQIRSLSGVDVEDVRKFLDKEWAWVKELLAEHPAELAEVEAARAARLAELRAEVEAKVAA | 0.593 nM
V60A (designed binder) MTLQELLREEALRRAEAEAFRYALELLAEKFPEQKEYLLDLAEEIESQIRSLSGVDVEDARKFLDKEWAWVKELLAEHPAELAEVEAARAARLAELRAEVEAKVAA | 0.653 nM
V85W (designed binder) MTLQELLREEALRRAEAEAFRYALELLAEKFPEQKEYLLDLAEEIESQIRSLSGVDVEDVRKFLDKEWAWVKELLAEHPAELAEWEAARAARLAELRAEVEAKVAA | 0.869 nM
V55H (designed binder) MTLQELLREEALRRAEAEAFRYALELLAEKFPEQKEYLLDLAEEIESQIRSLSGHDVEDVRKFLDKEWAWVKELLAEHPAELAEVEAARAARLAELRAEVEAKVAA | 1.16 nM
F20T (designed binder) MTLQELLREEALRRAEAEATRYALELLAEKFPEQKEYLLDLAEEIESQIRSLSGVDVEDVRKFLDKEWAWVKELLAEHPAELAEVEAARAARLAELRAEVEAKVAA | 1.16 nM
L41K (designed binder) MTLQELLREEALRRAEAEAFRYALELLAEKFPEQKEYLLDKAEEIESQIRSLSGVDVEDVRKFLDKEWAWVKELLAEHPAELAEVEAARAARLAELRAEVEAKVAA | 11.4 nM
E101N (designed binder) MTLQELLREEALRRAEAEAFRYALELLAEKFPEQKEYLLDLAEEIESQIRSLSGVDVEDVRKFLDKEWAWVKELLAEHPAELAEVEAARAARLAELRAEVNAKVAA | 0.718 nM
E10G (designed binder) MTLQELLREGALRRAEAEAFRYALELLAEKFPEQKEYLLDLAEEIESQIRSLSGVDVEDVRKFLDKEWAWVKELLAEHPAELAEVEAARAARLAELRAEVEAKVAA | 1.4 nM
A80K (designed binder) MTLQELLREEALRRAEAEAFRYALELLAEKFPEQKEYLLDLAEEIESQIRSLSGVDVEDVRKFLDKEWAWVKELLAEHPKELAEVEAARAARLAELRAEVEAKVAA | 0.718 nM
V100K (designed binder) MTLQELLREEALRRAEAEAFRYALELLAEKFPEQKEYLLDLAEEIESQIRSLSGVDVEDVRKFLDKEWAWVKELLAEHPAELAEVEAARAARLAELRAEKEAKVAA | 0.49 nM
Y37N (designed binder) MTLQELLREEALRRAEAEAFRYALELLAEKFPEQKENLLDLAEEIESQIRSLSGVDVEDVRKFLDKEWAWVKELLAEHPAELAEVEAARAARLAELRAEVEAKVAA | 0.869 nM
F63E (designed binder) MTLQELLREEALRRAEAEAFRYALELLAEKFPEQKEYLLDLAEEIESQIRSLSGVDVEDVRKELDKEWAWVKELLAEHPAELAEVEAARAARLAELRAEVEAKVAA | 0.593 nM
